Experimental findings from PMC4013577 are described below.

The target in assay [1] is anti-hIgG (IgG2a). The experiment in a line: SPR; Autolab ESPRIT, room temperature, PBS pH 7.4; anti-hIgG adsorbed on the Cal-4 derivative 1 (ethylester) SAM on gold, blocked with 0.1 mg/mL BSA, then 100 μL of 10 μg/mL protein G.
The target of assay [2] is anti-hIgG (IgG2a). The experiment in a line: SPR; Autolab ESPRIT, room temperature, PBS pH 7.4; anti-hIgG adsorbed on the Cal-4 derivative 2 (carboxylic acid) SAM on gold, blocked with 0.1 mg/mL BSA, then 100 μL of 10 μg/mL protein G.

As to “Protein G (from UniProt P06654 34-417) (natural protein)”, the figures for the SPR angle shift in assay [1] and in assay [2] were 32.6 m° and 94 m°, respectively.
